Results from US7402303 (LABORATOIRES SERONO, dated 2008).
Numbering of substitutions follows the chain as printed. Names and notes keep the numbering of the source. Values belong to the binder of their own block, whether it stands above or below them.

Target: T1, recombinant CCR1 (UniProt P32246 1-355, limits assumed)
T1 construct: whole, on cells; The assay used membranes of CHO transfectants, not whole cells
T1 sequence (looked up): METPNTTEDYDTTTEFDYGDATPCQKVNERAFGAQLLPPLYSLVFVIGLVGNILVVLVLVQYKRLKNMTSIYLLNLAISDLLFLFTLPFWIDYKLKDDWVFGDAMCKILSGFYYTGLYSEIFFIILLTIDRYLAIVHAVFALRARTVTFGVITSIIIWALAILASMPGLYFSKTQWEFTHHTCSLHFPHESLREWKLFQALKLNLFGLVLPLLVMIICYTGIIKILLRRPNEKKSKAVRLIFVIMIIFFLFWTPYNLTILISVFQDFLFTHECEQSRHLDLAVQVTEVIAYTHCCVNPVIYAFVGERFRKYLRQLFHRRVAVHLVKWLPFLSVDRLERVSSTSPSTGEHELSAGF
Assay: SPA equilibrium competition with [125I]-MIP-1α on CHO-CCR1 membranes
Experimental: Competitors were prepared by serial dilutions of the unlabelled chemokines in binding buffer to cover the range 10^-6-10^-12 M. The binding buffer used was 50 mM HEPES, pH 7.2 containing 1 mM CaCl_2, 5 mM MgCl_2, 0.15 M NaCl and 0.5% BSA. Wheatgerm SPA beads (Amersham) were solubilised in PBS to 50 mg/ml, and diluted in the binding buffer to a 10 mg/ml, and the final concentration in the assay was 0.25 mg/well. Membranes prepared from CHO cells expressing CCR1 or CCR5 were stored at −80° C. and diluted in the binding buffer to a 80 μg/ml. Equal volumes of membrane and beads stocks were mixed before performing the assay to reduce background. […] The plates were incubated at room temperature with agitation for 4 hours. Radioactivity was measured and data analysed as described for the heparin-binding assay.
MIP-1α for binding to recombinant CCR1 and CCR5 in membranes prepared from CHO stable transfectants. There was no significant difference in any of the single mutations on both receptors (results not shown).

- fold reduction in affinity against WT RANTES: 100 fold
B1: triple 40's RANTES mutant (R44A-K45A-R47A) (ligand)
chain: SPYSSDTTPCCFAYIARPLPRAHIKEYFYTSGKCSNPAVVFVTAANAQVCANPEKKWVREYINSLEMS
notes: E. coli protein, leader cleaved; also called R44A-K45A-R47A RANTES; triple 40's mutant

- fold loss of affinity against WT RANTES: 3 fold
B2: triple 50's RANTES mutant (K55A-K56A-R59A) (ligand)
chain: B1 chain with A44R, A45K, A47R, K55A, K56A, R59A
notes: E. coli protein, leader cleaved; also called triple 50's mutant; 50's mutant
